Molecular target: recombinant human ATM, wild type (N-terminal FLAG-FKBP1A) (human) (UniProt Q13315)
UniProt Q13315, sequence (Q13315 whole entry): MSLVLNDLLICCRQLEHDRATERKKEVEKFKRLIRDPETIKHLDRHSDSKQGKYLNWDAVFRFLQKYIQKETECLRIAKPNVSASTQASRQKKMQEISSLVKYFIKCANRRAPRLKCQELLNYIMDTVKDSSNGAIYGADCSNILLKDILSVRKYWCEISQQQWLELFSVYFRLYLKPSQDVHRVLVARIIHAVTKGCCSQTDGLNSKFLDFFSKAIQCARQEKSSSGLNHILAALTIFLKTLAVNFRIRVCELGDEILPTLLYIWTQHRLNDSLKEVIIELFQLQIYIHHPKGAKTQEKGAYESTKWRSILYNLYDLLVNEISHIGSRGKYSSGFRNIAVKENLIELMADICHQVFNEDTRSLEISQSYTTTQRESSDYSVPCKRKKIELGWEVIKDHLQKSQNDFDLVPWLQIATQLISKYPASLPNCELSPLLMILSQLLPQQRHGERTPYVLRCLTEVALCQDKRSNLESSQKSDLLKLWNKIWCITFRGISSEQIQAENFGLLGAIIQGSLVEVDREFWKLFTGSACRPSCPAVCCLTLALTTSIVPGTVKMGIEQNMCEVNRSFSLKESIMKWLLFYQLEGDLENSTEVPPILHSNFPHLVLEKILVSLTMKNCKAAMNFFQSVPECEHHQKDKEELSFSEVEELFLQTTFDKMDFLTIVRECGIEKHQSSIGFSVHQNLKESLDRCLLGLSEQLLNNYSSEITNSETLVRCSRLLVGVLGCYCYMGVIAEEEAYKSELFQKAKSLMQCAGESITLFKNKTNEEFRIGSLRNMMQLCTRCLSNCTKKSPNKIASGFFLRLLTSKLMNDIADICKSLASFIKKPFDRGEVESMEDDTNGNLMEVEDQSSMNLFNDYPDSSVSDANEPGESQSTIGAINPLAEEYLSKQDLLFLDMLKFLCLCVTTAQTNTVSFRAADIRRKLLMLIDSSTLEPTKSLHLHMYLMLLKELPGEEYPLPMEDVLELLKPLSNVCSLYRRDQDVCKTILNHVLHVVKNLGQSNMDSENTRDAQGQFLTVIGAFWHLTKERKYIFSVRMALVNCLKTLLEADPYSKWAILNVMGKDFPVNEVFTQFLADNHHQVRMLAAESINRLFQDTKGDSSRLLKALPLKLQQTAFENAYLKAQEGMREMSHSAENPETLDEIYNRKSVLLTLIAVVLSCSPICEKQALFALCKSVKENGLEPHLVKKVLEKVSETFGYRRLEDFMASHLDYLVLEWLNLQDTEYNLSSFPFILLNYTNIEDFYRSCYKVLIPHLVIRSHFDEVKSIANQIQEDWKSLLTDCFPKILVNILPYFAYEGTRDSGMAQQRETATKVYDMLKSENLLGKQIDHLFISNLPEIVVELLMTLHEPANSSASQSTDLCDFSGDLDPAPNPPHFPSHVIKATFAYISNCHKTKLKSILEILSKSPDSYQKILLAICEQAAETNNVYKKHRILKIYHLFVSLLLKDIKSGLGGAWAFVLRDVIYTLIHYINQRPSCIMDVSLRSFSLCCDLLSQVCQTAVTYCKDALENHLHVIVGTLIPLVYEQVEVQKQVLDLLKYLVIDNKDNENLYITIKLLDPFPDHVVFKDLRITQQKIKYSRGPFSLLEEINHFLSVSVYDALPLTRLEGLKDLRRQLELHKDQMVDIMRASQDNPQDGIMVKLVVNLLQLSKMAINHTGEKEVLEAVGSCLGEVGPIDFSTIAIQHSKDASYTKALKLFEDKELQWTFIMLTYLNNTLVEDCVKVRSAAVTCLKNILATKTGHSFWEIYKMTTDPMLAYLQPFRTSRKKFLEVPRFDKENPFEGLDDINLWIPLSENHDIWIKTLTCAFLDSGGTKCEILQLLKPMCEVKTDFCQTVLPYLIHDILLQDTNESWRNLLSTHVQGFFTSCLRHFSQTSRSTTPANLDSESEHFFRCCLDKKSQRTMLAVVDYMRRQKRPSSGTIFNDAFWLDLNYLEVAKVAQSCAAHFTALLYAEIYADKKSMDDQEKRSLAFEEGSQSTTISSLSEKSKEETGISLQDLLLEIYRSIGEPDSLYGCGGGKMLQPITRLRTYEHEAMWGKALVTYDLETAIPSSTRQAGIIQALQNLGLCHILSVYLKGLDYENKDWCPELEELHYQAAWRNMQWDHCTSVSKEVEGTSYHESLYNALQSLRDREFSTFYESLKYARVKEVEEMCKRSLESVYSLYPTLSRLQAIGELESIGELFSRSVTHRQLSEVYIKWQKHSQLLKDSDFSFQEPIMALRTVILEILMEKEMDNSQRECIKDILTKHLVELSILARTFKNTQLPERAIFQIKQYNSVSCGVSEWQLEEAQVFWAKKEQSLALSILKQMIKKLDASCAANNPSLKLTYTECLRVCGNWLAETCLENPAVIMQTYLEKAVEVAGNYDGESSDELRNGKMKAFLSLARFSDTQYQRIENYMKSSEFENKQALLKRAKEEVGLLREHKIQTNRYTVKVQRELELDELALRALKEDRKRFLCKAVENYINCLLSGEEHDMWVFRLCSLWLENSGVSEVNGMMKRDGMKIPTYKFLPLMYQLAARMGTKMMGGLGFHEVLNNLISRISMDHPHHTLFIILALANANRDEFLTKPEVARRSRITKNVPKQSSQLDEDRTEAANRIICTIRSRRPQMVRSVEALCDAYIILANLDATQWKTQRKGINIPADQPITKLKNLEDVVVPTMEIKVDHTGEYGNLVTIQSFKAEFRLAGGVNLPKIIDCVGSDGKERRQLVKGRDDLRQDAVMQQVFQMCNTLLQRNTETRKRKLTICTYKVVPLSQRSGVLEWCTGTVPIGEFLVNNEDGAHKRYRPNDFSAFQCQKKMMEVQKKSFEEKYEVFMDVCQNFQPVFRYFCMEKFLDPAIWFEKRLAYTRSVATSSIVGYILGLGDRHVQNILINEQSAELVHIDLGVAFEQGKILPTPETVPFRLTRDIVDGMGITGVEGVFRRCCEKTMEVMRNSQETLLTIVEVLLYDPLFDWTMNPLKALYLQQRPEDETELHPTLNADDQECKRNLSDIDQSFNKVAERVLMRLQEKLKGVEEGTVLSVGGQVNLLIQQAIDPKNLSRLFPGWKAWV

KM for p53 substrate, ATM activated by H2O2 (Phos-tag gel kinase assay, Michaelis-Menten): 29 µM
KM for p53 substrate, basal conditions (Phos-tag gel kinase assay, Michaelis-Menten): 80 µM
KM for p53 substrate, in the presence of MRN and 350-base pair dsDNA (Phos-tag gel kinase assay, Michaelis-Menten): 24 µM
Substance: His-MBP-TEV-p53(1-102) (from UniProt P04637 1-102) (domain or fragment)

— publication PMC10530080
